# Source: the supplement of paper PMC10567573
# ± gives the standard deviation.
# Experiment: protein stability index of a GFP-peptide fusion (GPS, HEK-293T) (PSI 1-6); higher = more stable
# [1] = treatment: DMSO, c terminus: a fixed tail appended
# [2] = treatment: MLN4924 1 uM, 8 h, c terminus: a fixed tail appended
# 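Also: 24-mer peptide tiles fused after GFP, lentivirally expressed, FACS-sorted into six equal bins by GFP/DsRed ratio, decoded by Illumina sequencing, PSI is the read-weighted mean bin number.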
Sequence,protein stability index [1],protein stability index [2],"protein stability index (treatment: DMSO, c terminus: native)","protein stability index (treatment: MLN4924 1 uM, 8 h, c terminus: native)"
PGLPGSTGNPKSEEPEVPDQEGLQ [SPNS1],5.39 ± 0.75,4.88 ± 0.22,–,–
GEKPFECNECGKAFRWGAHLVQHQ [ZNF232],2.58 ± 0.52,2.62 ± 0.82,–,–
TDFYLIFNDVAKFLKQGDSADETT [CMTM3],2.75 ± 0.31,2.6 ± 0.33,–,–
GSSSDNRTYRYSNRYCGGPGPPIT [DYRK1B],2.57 ± 0.42,2.75 ± 0.19,–,–
PTHPSSTHALAEWASRREAFAQRP [CDC25B],4 ± 0.26,3.91 ± 0.3,–,–
SLQDASRGDPAHAGLAELGHRLAQ [PBXIP1],4.33 ± 0.34,4.38 ± 0.27,–,–
EGVATYAAAVLFRMSEDKPQDYKK [CTNNB1],3.45 ± 0.17,3.46 ± 0.21,–,–
LEENELTSLAEDLLGLTDPNGGLA [TRADD],4.49 ± 0.27,4.43 ± 0.29,–,–
FYKRRGASDLSSEEGWRLFKIDKE [SAT1],3.32 ± 0.21,3.62 ± 0.49,–,–
VQVLTMGNDTSPSEGTNLNAPNSL [HNF4A],3.97 ± 0.17,4.02 ± 0.18,–,–
LCPGDLIQAINGESTELMTHLEAQ [PDLIM4],4.51 ± 0.26,4.54 ± 0.094,–,–
MRLPLPPAQVHSSLSAGEKPGFLA [RASAL3],3.4 ± 0.085,3.35 ± 0.14,–,–
VRSRLEEAGIKVHDVRLNGSAAGH [TENT5C],2.85 ± 0.43,3.21 ± 0.64,–,–
CNTFVYSSSKGTIRLCDMRASALC [PPP2R2B],2.5 ± 0.53,2.34 ± 0.51,–,–
RNRAITARRQHLKSVMLQIAATEL [TNNI2],2.4 ± 0.25,2.72 ± 0.33,–,–
YEKKFDTFIPLEPLPQIPNLPFWV [SPATS1],2.24 ± 0.31,1.95 ± 0.18,–,–
LEVNRLMGKLLQQPNTYADFEFLA [PKD2L1],2.17 ± 0.37,2.48 ± 0.14,–,–
VSIMYLVLVLAVQVHAWQLYYSKK [JAGN1],2.98 ± 0.67,3.27 ± 0.16,–,–
DSYSSSRSDLYSSGRDRVGRQERG [RBMX],4.72 ± 0.059,4.84 ± 0.22,–,–
APADPTAREGLAAPPRRLRSRKVS [FCHO1],5.12 ± 0.16,5.304 ± 0.013,–,–
IFCRDTQTVFQKKNLQQTTNTTST [IQUB],3.32 ± 0.34,3.66 ± 0.26,–,–
QCDALIDALNRRKAQLLARVNKEH [TRIM9],3.05 ± 0.2,3.27 ± 0.23,–,–

Sequence,protein stability index [1],protein stability index [2],"protein stability index (treatment: DMSO, c terminus: native)","protein stability index (treatment: MLN4924 1 uM, 8 h, c terminus: native)"
HVTNAMVLVNVLQAIYVIDFFWNE [DHCR7],3.08 ± 0.17,2.99 ± 0.34,–,–
FNAGIQQAFQLPKLGALLSRCRKL [ZBED1],2.63 ± 0.31,2.63 ± 0.29,–,–
TPIQLQELLALETALGGQCVDRQE [TCAP],4.52 ± 0.11,4.47 ± 0.26,–,–
LHPRGKNNFSPLHLAVDKNTTCVG [FEM1C],3.39 ± 0.13,3.43 ± 0.12,–,–
SNCISGVCSVRGGEGRSRGSANDY [KRT71],3.93 ± 0.36,4.23 ± 0.084,–,–
EKRERALEEVERAILEMKWKVRAE [ZBED2],3.77 ± 0.27,3.74 ± 0.53,–,–
PTRNDLESGLGHFSLRVHTGCHKK,4.06 ± 0.18,4.11 ± 0.18,–,–
PGDPKWLDVIERDLHRQFPFHEMF [TBC1D10A],2.46 ± 0.31,2.57 ± 0.41,–,–
RNIMNLIDIVAIIPYFITLGTELA [KCNA3],2.84 ± 0.4,2.97 ± 0.21,–,–
LGVIQRDLAKTGCVDLTITNLLEG [AUP1],2.52 ± 0.18,2.61 ± 0.46,–,–
PATGGAIPSWQIRTVKLIRYVSNW [PKD2L1],2.09 ± 0.24,2.24 ± 0.39,–,–
RRAGAACTLRQKLIFSPCSDCEEE [WEE1],4.2 ± 0.25,4.39 ± 0.15,–,–
LPMWSNQTWNNSTWSNQTQNIQSW [NANOGP8],2.45 ± 0.38,2.56 ± 0.27,–,–
GGLNRETNEKMLKAVFGKHGPISE [RBMY1A1],3.69 ± 0.28,3.81 ± 0.19,–,–
FSSQKLKCLSMFPHYICTLKQPHL [PNLIPRP1],2.66 ± 0.57,2.17 ± 0.35,–,–
SYATEADIISTVEFNHTGELLATG [PPP2R2B],3.9 ± 0.43,3.94 ± 0.32,–,–
NSVISVCSSSNLAGNDDSFGSLPS [DLC1],4.18 ± 0.21,4.23 ± 0.24,–,–
HEGKTDSERTDTAADGETTATEEL [EPB41L3],5.65 ± 0.34,5.51 ± 0.21,–,–
ESKVREATNDDPWGPSGQLMGEIA [CLINT1],4.7 ± 0.12,4.78 ± 0.096,–,–
LPRRRGLRKKKTTKLRLERVKFRR [NEUROD6],3.85 ± 0.27,3.97 ± 0.29,–,–
SYYNSPGLHVQHMGTSHGITRPSP [CCDC6],3.2 ± 0.29,3.24 ± 0.39,–,–
DASVQPGPFRTLLQFLYTGQLDEK [RHOBTB1],2.51 ± 0.33,2.72 ± 0.3,–,–

Sequence,protein stability index [1],protein stability index [2],"protein stability index (treatment: DMSO, c terminus: native)","protein stability index (treatment: MLN4924 1 uM, 8 h, c terminus: native)"
YTRLGEMNNAVRNLQELLELDSSS [CEP70],3.77 ± 0.22,4.06 ± 0.17,–,–
EATKEVHTQAENAEFMRNFQKGQV [HMOX1],5.04 ± 0.17,5.21 ± 0.23,–,–
VFCDMETDGGGWLVFQRRMDGQTD [TNXB],2.9 ± 0.27,2.98 ± 0.096,–,–
SGAGRRKNATRETTSTLKAWLNEH [IRX6],3.55 ± 0.28,3.58 ± 0.23,–,–
CKSGAAAKGGFSGCSAVLSGGSSS [KRT71],3.26 ± 0.46,3.44 ± 0.066,–,–
SGLIYLTNHIAPHARNGLSLKEEH [IKZF1],2.58 ± 0.37,2.71 ± 0.19,–,–
GQSLLKDEALAIAALELLPRELFP [PRAME],2.75 ± 0.41,2.84 ± 0.36,–,–
KPKTTNIELQGVPNDEVHPLLGVK [RBBP5],4.65 ± 0.7,4.75 ± 0.34,–,–
PRNGDQWHEIRQGRLPRIPQVLSQ [WEE1],3.12 ± 0.17,3.32 ± 0.5,–,–
KWTGDFFNKGIYDIHVGLRGVPLL [CLCN6],2.86 ± 0.8,2.24 ± 0.44,–,–
DPLPAAAVGAAAEAEADEEADPPA [SNX8],5.59 ± 0.3,5.71 ± 0.14,–,–
YFSTPQTMDLFLNYSMNMQPEDV [NANOGP8],–,–,2.34 ± 0.21,2.27 ± 0.55
GAQELLEFTIRDLQRLGELQSELA [INTS4],2.54 ± 0.36,2.79 ± 0.29,–,–
DGTFSPVTLALFFVLYFLLACWTY [CLCN6],3.07 ± 0.34,2.9 ± 0.21,–,–
ICDLARSIDFNKDGHIDINEFLEA [PPEF2],3.6 ± 0.31,4.04 ± 0.21,–,–
GLAIHCMQVHKETIDAVPNAIPGR [ZNF207],2.94 ± 0.18,3.04 ± 0.16,–,–
TQAHIQECKHPSVFQHGDNSFRLL [MCOLN1],2.78 ± 0.11,2.92 ± 0.16,–,–
ESTLYPNPYHQPYISRKYFATRPG [TPRG1],2.76 ± 0.43,3.03 ± 0.088,–,–
ALSGASQPGPSGAPAQRATRGFLR [RETREG3],4.59 ± 0.16,4.78 ± 0.073,–,–
PCAGSTSLSHSPGCSSTQGNGRPG [LCOR],3.74 ± 0.42,4.16 ± 0.33,–,–
CYEHFAELDIPQSVQQNGSIYIHV [CLPTM1],2.75 ± 0.48,2.98 ± 0.45,–,–
